Where two headings read alike, the source gives them in different places.
B1: Munc13–1(3–150) (domain or fragment, rat, UniProt Q62768 3-150, looked up)
chain: LLCVGVKKAKFDGAQEKFNTYVTLKVQNVKSTTIAVRGSQPSWEQDFMFEINRLDLGLTVEVWNKGLIWDTMVGTVWIPLRTIRQSNEEGPGEWLTLDSQAIMADSEICGTKDPTFHRILLDAHFELPLDIPEEEARYWAKKLEQLNA
notes: Munc13-1, rat, residues 3-150 (C2A domain and C-terminal extension); Forms a homodimer (AUC); 15N-labelled for NMR; source: bacteria, GST fusion, purified (glutathione-Sepharose, GST cleaved, size-exclusion or ion-exchange chromatography)
B2: Munc13–1(3–209) (domain or fragment, rat, UniProt Q62768 3-209, looked up)
chain: LLCVGVKKAKFDGAQEKFNTYVTLKVQNVKSTTIAVRGSQPSWEQDFMFEINRLDLGLTVEVWNKGLIWDTMVGTVWIPLRTIRQSNEEGPGEWLTLDSQAIMADSEICGTKDPTFHRILLDAHFELPLDIPEEEARYWAKKLEQLNAMRDQDEYSFQDQQDKPLPVPSSQCCNWNYFGWGEQNDDPDSAVDDRDSDYRSETSNSIP
notes: Munc13-1, rat, residues 3-209; Forms a homodimer (AUC); 15N-labelled for NMR; source: bacteria, GST fusion, purified (glutathione-Sepharose, GST cleaved, size-exclusion or ion-exchange chromatography)

What was measured:
[1] = target: RIM2α ZF domain (Rattus norvegicus) (UniProt Q9JIS1); settings: cited from earlier work
[2] = target: RIM2α ZF domain (Rattus norvegicus) (UniProt Q9JIS1); settings: cited from earlier work; remark: listed apart in the source
[3] = target: the molecule itself; assay: AUC; sedimentation equilibrium at 20,000-35,000 rpm, 4 °C; 30 mM Tris pH 8.0, 150 mM NaCl, 1 mM TCEP; loading 12.46-13.65 μM; monomer/dimer equilibrium model, dimer to monomers; the paper notes that constants below 50-100 nM are not quite accurate
Munc13–1(3–150) = target: B1; assay: SEC; gel filtration on Superdex S75 or S200; 30 mM Tris-HCl, 150 mM NaCl, 1 mM TCEP, pH 7.4; isolated proteins and their mixtures (Figures 1B, 4A); settings: both partners purified
Munc13–1(3–209) = target: B2; assay: as above; settings: both partners purified
[4] = target: Munc13–1(3–150)(K32E) (rat) (UniProt Q62768); assay: ITC; 200 μM Rim2α(82-142) injected into 10-20 μM Munc13-1(3-150)(K32E) in the cell; 20 °C; 30 mM Tris pH 7.4, 150 mM NaCl, 1 mM TCEP; single-site model; apparent Kd

Molecule	Kd [3]	stoichiometry N [3]	further results
Munc13-1 3-150 (from UniProt Q62768)	–	–	Kd [1]: 350 nM
Munc13-1 3-209 (from UniProt Q62768)	–	–	Kd [2]: 70 nM
Munc13–1(3–132) (domain or fragment, rat, UniProt Q62768 3-132, looked up, Forms a homodimer (AUC); source: bacteria, GST fusion, purified (glutathione-Sepharose, GST cleaved, size-exclusion or ion-exchange chromatography)) LLCVGVKKAKFDGAQEKFNTYVTLKVQNVKSTTIAVRGSQPSWEQDFMFEINRLDLGLTVEVWNKGLIWDTMVGTVWIPLRTIRQSNEEGPGEWLTLDSQAIMADSEICGTKDPTFHRILLDAHFELPLD	80 nM	2	–
B1	5.2 nM	2	–
B2	1.9 nM	2	–
Munc13–1(3–128) (domain or fragment, rat, UniProt Q62768 3-128, looked up, Cloned into a modified pGEX-KG vector with a TEV protease cleavage site; Forms a homodimer (AUC, crystal structure); 15N-labelled for NMR; also called Munc13–1 C2A domain; Munc13–1 C2A-domain homodimer; source: bacteria, GST fusion, purified (glutathione-Sepharose, GST cleaved, size-exclusion or ion-exchange chromatography)) LLCVGVKKAKFDGAQEKFNTYVTLKVQNVKSTTIAVRGSQPSWEQDFMFEINRLDLGLTVEVWNKGLIWDTMVGTVWIPLRTIRQSNEEGPGEWLTLDSQAIMADSEICGTKDPTFHRILLDAHFE	310 nM	2	–
RIM2α(82–142) (domain or fragment, rat, UniProt Q9JIS1-1 82-142, looked up, also called RIM2α ZF domain; RIM2α zinc-finger domain; source: bacteria, GST fusion, purified (glutathione-Sepharose, GST cleaved, size-exclusion or ion-exchange chromatography)) QQEQKGDAPTCGICHKTKFADGCGHNCSYCQTKFCARCGGRVSLRSNKVMWVCNLCRKQQE	–	–	binding result (Munc13–1(3–150)): binds; binding result (Munc13–1(3–209)): binds; Kd [4]: 100 nM; stoichiometry N [4]: 1

— publication PMC1472246, “Structural Basis for a Munc13–1 Homodimer to Munc13–1/RIM Heterodimer Switch” (PLoS Biology, 2006)
